A word on the Kd: it is the concentration at which binding is half-saturated. A lower Kd goes with higher affinity.

This data set deals with CsrA-2 (rCsrA-2) (Coxiella burnetii). The experiment in a line: EMSA. The following applies: 30 min 37 C, pH not stated. On the technique in general: A gel shift assay detects complexes by their altered migration in electrophoresis.

CbsR12: the Kd is 130 nM.

The values are drawn from publication doi:10.1101/679134.
